Results reported in the DeepSol protein solubility set.

Experiment: soluble on expression in E. coli; label from the status in PepcDB or PDB records

Sequence | soluble on expression in E. coli
MTSIQQRDAQSVLAAIDNLLPEIRDRAQATEDLRRLPDETVKALDDVGFFTLLQPQQWGGLQCDPALFFEATRRLASVCGSTGWVSSIVGVHNWHLALFDQRAQEEVWGEDPSTRISSSYAPMGAGVVVDGGYLVNGSWNWSSGCDHASWTFVGGPVIKDGRPVDFGSFLIPRSEYEIKDVWYVVGLRGTGSNTLVVKDVFVPRHRFLSYKAMNDHTAGGLATNSAPVYKMPWGTMHPTTISAPIVGMAYGAYAAHVEHQGKRVRAAFAGEKAKDDPFAKVRIAEAASDIDAAWRQLIGNVSDEYALLAAGKEIPFELRARARRDQVRATGRSIASIDRLFEASGATALSNEAPIQRFWRDAHAGRVHAANDPERAYVIFGNHEFGLPPGDTMV | soluble
MTSLIGTHSGKFHCDEAFACFMLKQLPQFKDHSILRTRDAAQLEKCDIIVDVGGIFDHSKQRYDHHQRGFTDTMRTLEKLNFDTKLSSAGLVYAHYGREVINQILGGNVSSSMIDLFYHRLYEQFVESIDAIDNGISQYDGVPRYHSSGNLSSRTGQFNSHWNEPENDADERFQQAMQFIGEEFSRSVKYLANVWWPAREIIEAAVDKRFEIDASGRIILIENGGCPWKEHFFDIEVEKNIADDNITYILFSDSTNASWRVQAIPVDKMSSFENRMPLPAAWRGLRDDDLSKESGIPGGVFVHISGFIGGNLTREGAIAMARKALEIGEENPVKKAKLGN | soluble
MTSRGDSREKILHTASRLSQLQGYHATGLNQIVKESGAPKGSLYHFFPNGKEELAIEAVTYTGKIVEHLIQQSMDESSDPVEAIQLFIKKTASQFDNTESIKGIPVGLLASETALISEPLRTVCMKVFKSWEAVFARKLMENGFAEEEANQLGTLINSMIEGGIMLSLTNKDKTPLLLIAEQIPVLVRKKG | soluble
MTSSLVLILAPLALVAIGEAAFGNSSKIFEIPGLEVMASDKYPHFTTIETVSRTKVHRHRREVIAGQIYDWNSYEIPFQIWGGDYNFQSLIRRGIRMWEDSTCLRFKENQQSRDAIRYVLEKGDSCFTEYIGRNGGHQDIIIGSECAEEYVVAHETGHALGFWHTHQRPDRDRHISINWKNVMEEATASFMPFRSMLQAFGIRQVSPRRVPYDYGSLMHYHAVAHAVKVSDFTIVPKELKYVTTMGTEKMAFLDAKVINDIYCPNACQGRNHLNCLAGGYPDPNNCNVCRCPEGLGGPDCGRLQPSPCGGEIHASDQWQTLSSPSGRDVHCYWRISVPEGSRVRFRLSDGEFPCSYGCQSYVEIKHKLDVRLTGFRSCCYRPKEDTVSESNQIFVIYHPNGRTARFSLRFRRQA | not soluble
MTTARPAKARNEGQWALGHREPLNANEELKKAGNPLDVRERIENIYAKQGFDSIDKTDLRGRFRWWGLYTQREQGYDGTWTGDDNIDKLEAKYFMMRVRCDGGALSAAALRTLGQISTEFARDTADISDRQNVQYHWIEVENVPEIWRRLDDVGLQTTEACGDCPRVVLGSPLAGESLDEVLDPTWAIEEIVRRYIGKPDFADLPRKYKTAISGLQDVAHEINDVAFIGVNHPEHGPGLDLWVGGGLSTNPMLAQRVGAWVPLGEVPEVWAAVTSVFRDYGYRRLRAKARLKFLIKDWGIAKFREVLETEYLKRPLIDGPAPEPVKHPIDHVGVQRLKNGLNAVGVAPIAGRVSGTILTAVADLMARAGSDRIRFTPYQKLVILDIPDALLDDLIAGLDALGLQSRPSHWRRNLMACSGIEFCKLSFAETRVRAQHLVPELERRLEDINSQLDVPITVNINGCPNSCARIQIADIGFKGQMIDDGHGGSVEGFQVHLGGHLGLDAGFGRKLRQHKVTSDELGDYIDRVVRNFVKHRSEGERFAQWVIRAEEDDLR | soluble
MTTDERKLFNHLKSPHLKYWVPFIWFGNLATKARNEGRIRDSVDLQSLMTEMNRYRSWCSLLFGYDWVGIPLVYTQVAEQLINPFGEDDDDFETNWCIDRNLQVSLLAVDEMHMSLPKMKKDIYWDDSAARPPYTLAAADYCIPSFLGSTVQMGLSGSDFPDEEWLWDYEKHGHRHSMIRRVKRFLSAHEHPSSPRRRSYRRQTSDSSMFLPRDDLSPARDLLDVPSRNPPRASPTWKKSCFPEGSPTLHFSMGELSTIRETSQTSTL | soluble
MTTEAPIWPAELFEDLDRNGPIPLYFQVAQRLEDGIRSGVLPPGARLENEISVAKHLNVSRPTVRRAIQEVVDKGLLVRRRGVGTQVVQSHVTRPVELTSFFNDLKNANLDPKTRVLEHRLLAASSAIAEKLGVSAGDEVLLIRRLRSTGDIPVAILENYLPPAFNDVSLDELEKGGLYDALRSRGVVLKIANQKIGARRAVGEESTLLDIEDGGPLLTVERVALDNSGQVIELGSHCYRPDMYNFETTLVAR | soluble
MTTIASFPILQLPEKSLKIAIQSLTLEELIKFSLISKSTKRAAESLNLQADPFCDLY | not soluble
MTTNEEFIRTQIFGTVFEITNRYNDLNPVGMGAFGLVCSATDTLTSQPVAIKKIMKPFSTAVLAKRTYRELKLLKHLRHENLICLQDIFLSPLEDIYFVTELQGTDLHRLLQTRPLEKQFVQYFLYQILRGLKYVHSAGVIHRDLKPSNILINENCDLKICDFGLARIQDPQMTGYVSTRYYRAPEIMLTWQKYDVEVDIWSAGCIFAEMIEGKPLFPGKDHVHQFSIITDLLGSPPKDVINTICSENTLKFVTSLPHRDPIPFSERFKTVEPDAVDLLEKMLVFDPKKRITAADALAHPYSAPYHDPTDEPVADAKFDWHFNDADLPVDTWRVMMYSEILDFHKIGGSDGQIDISATFDDQVAAATAAAAQAQAQAQAQVQLNMAAHSHNGAGTTGNDHSDIAGGNKVSDHVAANDTITDYGNQAIQYANEFQQ | soluble
MTTNNDFYFALLRISILQLLKAQGFDRARPSLVDVMTDLYAKFLSLLASEVSSIAQARCDQDDTIALQDITLALENLGIVKPTNVLDVYDENSELSSSRGMEKFKDWCIYSTQLTDARITALPTVELLQSEEKESDPLSAIPDYLNQLLQNKGAKQKLETKNRKTELIEDLINNNGLDDWIKLVIARQRINMIERASKKESQNVPALPHIAGYKSSILSRHHHTTITNEDRMPSAMTPRDEDALTEIQENPFVTSKLPIMRKENRLENITLSFEDEELESLGEVEGPNQKSQENNNEESFKENNKSLTESPHGDDRDISMFQFDSNVDTKWAEQEDMDSTFQRRTSLDYGGYF | not soluble
MTTPLKKIVIVGGGAGGLEMATQLGHKLGRKKKAKITLVDRNHSHLWKPLLHEVATGSLDEGVDALSYLAHARNHGFQFQLGSVIDIDREAKTITIAELRDEKGELLVPERKIAYDTLVMALGSTSNDFNTPGVKENCIFLDNPHQARRFHQEMLNLFLKYSANLGANGKVNIAIVGGGATGVELSAELHNAIKQLHSYGYKGLTNEALNVTLVEAGERILPALPPRISAAAHNELTKLGVRVLTQTMVTSADEGGLHTKDGEYIEADLMVWAAGIKAPDFLKDIGGLETNRINQLVVEPTLQTTRDPDIYAIGDCASCPRPEGGFVPPRAQAAHQMATCAMNNILAQMNGKPLKNYQYKDHGSLVSLSNFSTVGSLMGNLTRGSMMIEGRIARFVYISLYRMHQIALHGYFKTGLMMLVGSINRVIRPRLKLH | not soluble
MTTPSMEMYIEQIYMLIEEKGYARVSDIAEALAVHPSSVTKMVQKLDKDEYLIYEKYRGLVLTSKGKKIGKRLVYRHELLEQFLRIIGVDEEKIYNDVEGIEHHLSWNSIDRIGDLVQYFEEDDARKKDLKSIQKKTEHHNQ | soluble
MTTSALPRQAFGEMADTVILLEKATTTPICEGMNRLLASFQALYLQYQKHHFVVEGAEFYPLHQFFQDCYEQVQDHVHALGERLNGLGGVPVAGFQQLAALCCFTPEPEGAFNCRQMLSNDLQAEQAIIGVLRQQATQAESLGDRATAYLYDQILLKTEERAYHIGHFLANDSLKVLKVKLADGREHHHHHH | soluble
MTTSIWKKLVTAVRGGASEVGESIADANAIRILDQEIRDADNALVKARDGLITIKAKHKLSAQRLEEHATSIANWEGRAMQALNKGEEALAVECASKIAEIEALRDQEQELADQFGKQVSLLQEQVIKAESRIKSLKQQVEMAKARETVQRARVATATATGGASGSVETAVGSLARLKQRQDEQDAKLEAAEELASQSSGSDLERRLQDAGIGAKSGGAQDVLARLKAKNQTPAQLEHHHHHH | not soluble
MTVAVIGAHGGIGRRLLPRLNEAGHDPIGVVRSEDQFAAIRDRGAEPRLGDLEGEVASALDGADAVVFTAGAGGSTGWDKTILVDLWGAERAVHACEEKEIDRFVMVSSRGAGDPESRQGPIKPYIVAKHVADRTLQRSSLDETILRPTRLTDAEGTGRVAAYVDTDPDAGDPIPRADVAQAVVQCLADDNTVGHAITLYGGDTPIGEALRPSGLEHHHHHH | not soluble
MTVGLGMPQPPAPTLAPRRATRQLMVGNVGVGSDHPVSVQSMCTTKTHDVNSTLQQIAELTAAGCDIVRVACPRQEDADALAEIARHSQIPVVADIHFQPRYIFAAIDAGCAAVRVNPGNIKEFDGRVGEVAKAAGAAGIPIRIGVNAGSLDKRFMEKYGKATPEALVESALWEASLFEEHGFGDIKISVKHNDPVVMVAAYELLAARCDYPLHLGVTEAGPAFQGTIKSAVAFGALLSRGIGDTIRVSLSAPPVEEVKVGNQVLESLNLRPRSLEIVSCPSCGRAQVDVYTLANEVTAGLDGLDVPLRVAVMGCVVNGPGEAREADLGVASGNGKGQIFVRGEVIKTVPEAQIVETLIEEAMRLAAEMGEQDPGATPSGSPIVTVS | soluble
MTVSSHRLELLSPARDAAIAREAILHGADAVYIGGPGFGARHNASNSLKDIAELVPFAHRYGAKIFVTLNTILHDDELEPAQRLITDLYQTGVDALIVQDMGILELDIPPIELHASTQCDIRTVEKAKFLSDVGFTQIVLARELNLDQIRAIHQATDATIEFFIHGALCVAYSGQCYISHAQTGRSANRGDCSQACRLPYTLKDDQGRVVSYEKHLLSMKDNDQTANLGALIDAGVRSFKIEGRYKDMSYVKNITAHYRQMLDAIIEERGDLARASSGRTEHFFVPSTEKTFHRGSTDYFVNARKGDIGAFDSPKFIGLPVGEVVKVAKDHLDVAVTEPLANGDGLNVLIKREVVGFRANTVEKTGENQYRVWPNEMPADLHKIRPHHPLNRNLDHNWQQALTKTSSERRVAVDIELGGWQEQLILTLTSEEGVSITHTLDGQFDEANNAEKAMNNLKDGLAKLGQTLYYARDVQINLPGALFVPNSLLNQFRREAADMLDAARLASYQRGSRKPVADPAPVYPQTHLSFLANVYNQKAREFYHRYGVQLIDAAYEAHEEKGEVPVMITKHCLRFAFNLCPKQAKGNIKSWKATPMQLVNGDEVLTLKFDCRPCEMHVIGKIKNHILKMPLPGSVVASVSPDELLKTLPKRKG | soluble
MTVTSMLDNVLRIATRQSPLALWQAHYVKDALMATHPGLTVELVPMVTRGDVILDTPLAKVGGKGLFVKELEIALLEKRADIAVHSMKDVPVAFPDGLGLVTICEREDPRDAFVSNKYHSLDDLPAGSIVGTSSLRRQCQLAERRPDLIIRSLRGNVGTRLGKLDNGDYDAIILAVAGLKRLGLESRIRTALPPDVSLPAVGQGAVGIECRLDDARTQALLAPLNHSQTALRVTAERAMNTRLEGGCQVPIGSYAEIINGEIWLRALVGAPDGSVMVRGERRGSPEQAEQMGISLAEELLENGARAILTEVYNGETPA | not soluble
MTWQVQRRKWKLNLIAELESRVLAEPVPLPADPMELKNLEYRPVKVRGCFDHSKELYMMPRTMVDPVREAREGGLISSSTQSGAYVVTPFHCTDLGVTILVNRGFVPRKKVNPETRQKGQIEGEVDLIGMVRLTETRQPFVPENNPERNHWHYRDLEAMARITGAEPIFIDANFQSTVPGGPIGGQTRVTLRNEHLQYIVTWYGLSAATSYLWFKKFLRGTPGV | not soluble
MTYDSEFGSHVSLYRDRIKQVIDDSLNEHLNSMILRVDLHDPIDTENMDNPFFQPRVDSGAISRFTSALKAKLKHDKHIKTQRKDWPDSRHSTLRYAWVREYTKNRKRHYHLILCFNQDAYYHLGDYDLNRNTLRTMITTAWYSALGIPIDSSGKLVNYPPNGKYLLNRKRDNFEQTYSDLMNRVDYMTKVRTKIVGDGDRNFGCSRG | soluble
